Data from US5246838A, “Processing of proteins” (priority 1990, dated 1993).

How the values were obtained:
[1] = target: pre(A42)-β-lactamase (E. coli) (UniProt P62593)
[2] = target: pre(A13i)-β-lactamase (B. subtilis; E. coli) (UniProt P62593); settings: scale: % of all the
[3] = target: pre(A2d)-β-lactamase (E. coli) (UniProt P62593)
[4] = target: pre(A2)-β-lactamase (E. coli) (UniProt P62593)
[5] = target: wild-type TEM pre-β-lactamase (E.coli) (UniProt P62593)
[6] = target: truncated pre-β-lactamase (E.coli) (UniProt P62593)
[7] = target: pre(A13i)-β-lactamase (B. subtilis; E. coli) (UniProt P62593)
[8] = system: E. coli cells containing pSPB plasmids (beta-lactamase with the indicated signal peptide); experiment: Ampicillin resistance in E. coli carrying pSPB plasmids (colony formation); assay type: cell-based
Description: described in Materials and Methods. Resistance to ampicillin was defined
as the maximal concentration of the antibiotic at which 100% of the E.
coli cells could form colonies. Plasmids indicated by pSPA . . . contain
amylase with the indicated signal peptide, plasmids indicated by pSPB . .
. contain lactamase with the indicated signal peptide.

“E.coli SPase I (signal peptidase I) (from UniProt P00803) (enzyme)” was tested, and the t50, time necessary to process 50% of the precursor, pulse-chase labeling in E.coli C600 [1] was 15 min, the relative amount of mature enzyme, pulse-chase labeling in E.coli C600 [2] was 6 to 7 and the t50, time necessary to process 50% of the precursor, pulse-chase labeling in E.coli C600 [3] was under 1 min. It also gave a t50, time necessary to process 50% of the precursor, pulse-chase labeling in E.coli C600 [4] of 2.2 min, a fraction unprocessed wildtype (P) lactamase, pulse-chase labeling, samples 15 s after the chase [5] of 15% and a fraction unprocessed truncated (P') lactamase, pulse-chase labeling, samples 15 s after the chase [6] of 63%.

In the case of B. subtilis SPase I (enzyme), the t50, time necessary to obtain equal amounts of the precursor and the mature forms, pulse-chase labeling in B. subtilis DB104 [7] is reported as 6 min.

For S.typhimurium SPase I (enzyme), the fraction unprocessed wildtype (P) lactamase, pulse-chase labeling, samples 15 s after the chase [5] was 16% and the fraction unprocessed truncated (P') lactamase, pulse-chase labeling, samples 15 s after the chase [6] was 60%.

In the case of `CC1(C)S[C@@H]2[C@H](NC(=O)[C@H](N)c3ccccc3)C(=O)N2[C@H]1C(=O)O` [ampicillin], the “E. coli amp. resist. (maximal concentration of the antibiotic at which 100% of the E. coli cells could form colonies)” value ([8]; E. coli containing pSPB-A2) is reported as 300 µg/mL, the “E. coli amp. resist. (maximal concentration of the antibiotic at which 100% of the E. coli cells could form colonies)” value ([8]; E. coli containing pSPB-A13) is reported as 300 µg/mL and the “E. coli amp. resist. (maximal concentration of the antibiotic at which 100% of the E. coli cells could form colonies)” value ([8]; E. coli containing pSPB-A13i) is reported as 100 µg/mL. For the same compound, the “E. coli amp. resist. (maximal concentration of the antibiotic at which 100% of the E. coli cells could form colonies)” value ([8]; E. coli containing pSPB-A42) was 20 µg/mL, the “E. coli amp. resist. (maximal concentration of the antibiotic at which 100% of the E. coli cells could form colonies)” value ([8]; E. coli containing pSPB-A2d) was 500 µg/mL and the “E. coli amp. resist. (maximal concentration of the antibiotic at which 100% of the E. coli cells could form colonies)” value ([8]; E. coli containing pSPB-A42d) was 100 µg/mL.
